Target: T1, recombinant endonuclein (human, UniProt Q13610 2-501)
T1 construct: human endonuclein, coding region Asn2-Ser501 of the 2309.2 cDNA, in the vector pT7-PL; also called IEF SSP 9502; PWP1 (yeast homologue's name)
Test: SPR; BIAcore 2000; endonuclein amine-coupled to a CM5 chip (3302 RU); analytes at 1 μM or 5 μM in 10 mM Hepes, 150 mM NaCl, 5 mM CaCl2, 1 mM EGTA, pH 7.4, 0.005% P20; control flow channel subtracted
Conditions: both partners purified

B1: recombinant TIP-1 as fusion protein with glutathion S-transferase (natural protein, UniProt O14907 1-124, looked up)
chain: MSYIPGQPVTAVVQRVEIHKLRQGENLILGFSIGGGIDQDPSQNPFSEDKTDKGIYVTRVSEGGPAEIAGLQIGDKIMQVNGWDMTMVTHDQARKRLTKRSEEVVRLLVTRQSLQKAVQQSMLS
notes: TIP-1, coding region of the cDNA amplified with primers from the start codon (ATG-TCC-TAC-ATC-CCG-GGC-CA) to the stop codon, in pGEX-4T3; pGEX-4T3 is known to place GST at the N-terminus; also called GST-TIP-1; source: E. coli, purified (pGEX, according to the manufacturer)
binding result: binds

From paper PMC2810291, “Identification and characterization of endonuclein binding proteins: evidence of modulatory effects on signal transduction and chaperone activity” (BMC Biochemistry, 2009)
